The target of assay [1] is T1, Human serum albumin (Homo sapiens, UniProt P02768). The assay can be described thus: SPR.
The target in assay [2] is T1, Human serum albumin. The assay is described as follows: pull-down.
Assay [3] addresses cynomolgus monkey albumin (Macaca fascicularis, UniProt A2V9Z4). The assay can be described thus: pull-down.
Assay [4] has as its target T2, mouse albumin (Mus musculus, UniProt P07724). The assay is described as follows: pull-down.
Assay [5] deals with T2, mouse albumin. The assay is described as follows: ELISA.

T2 sequence (P07724 25-608): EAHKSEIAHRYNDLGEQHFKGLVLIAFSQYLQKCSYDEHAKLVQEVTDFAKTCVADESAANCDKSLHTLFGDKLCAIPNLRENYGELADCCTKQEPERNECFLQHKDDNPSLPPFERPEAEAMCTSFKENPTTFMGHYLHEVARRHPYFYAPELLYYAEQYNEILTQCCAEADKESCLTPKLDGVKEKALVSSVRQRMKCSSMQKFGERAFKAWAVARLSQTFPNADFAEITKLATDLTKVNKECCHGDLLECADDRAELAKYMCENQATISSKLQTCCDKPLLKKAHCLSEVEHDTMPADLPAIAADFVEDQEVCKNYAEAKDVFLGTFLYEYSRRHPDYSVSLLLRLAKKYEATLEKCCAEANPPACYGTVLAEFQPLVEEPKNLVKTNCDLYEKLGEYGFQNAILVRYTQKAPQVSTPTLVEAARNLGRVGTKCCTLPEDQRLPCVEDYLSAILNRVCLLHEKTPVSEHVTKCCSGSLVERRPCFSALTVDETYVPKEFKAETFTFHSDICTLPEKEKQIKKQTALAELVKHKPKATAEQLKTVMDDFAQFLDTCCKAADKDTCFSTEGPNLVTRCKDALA
Chain of cynomolgus monkey albumin (A2V9Z4 25-608): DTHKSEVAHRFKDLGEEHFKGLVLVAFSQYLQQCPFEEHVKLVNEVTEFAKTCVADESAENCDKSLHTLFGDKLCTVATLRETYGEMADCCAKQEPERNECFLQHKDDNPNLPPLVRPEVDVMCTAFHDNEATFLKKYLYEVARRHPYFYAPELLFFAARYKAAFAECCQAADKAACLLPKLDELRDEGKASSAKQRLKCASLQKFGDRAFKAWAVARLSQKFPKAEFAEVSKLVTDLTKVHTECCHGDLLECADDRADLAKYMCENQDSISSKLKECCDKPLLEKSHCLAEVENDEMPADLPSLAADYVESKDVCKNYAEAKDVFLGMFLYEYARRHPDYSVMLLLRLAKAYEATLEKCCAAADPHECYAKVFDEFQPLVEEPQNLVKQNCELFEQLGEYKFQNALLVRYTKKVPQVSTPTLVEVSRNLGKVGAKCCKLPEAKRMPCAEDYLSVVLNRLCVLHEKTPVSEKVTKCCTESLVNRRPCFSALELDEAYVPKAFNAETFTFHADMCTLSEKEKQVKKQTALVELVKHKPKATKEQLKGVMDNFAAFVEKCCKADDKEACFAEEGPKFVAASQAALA

B1: Nb13 (VHH)
VHH: HVQLVESGGELVQAGGSLRLSCAASGRTFSNYAMGWFRQAPGTEREFVAAISRSGGSTYYADSVKGRFIISRDNAKNTVWLQMNMLKPEDTSVYYCAAAEGLASGSYDYAPPLKSSWYDYWGQGTQVTVSE
B1 displayed a Kd with Human serum albumin [1] of 0.201 nM.

B2: Nb132 (VHH)
VHH: HVQLVESGGGLVQAGGSLRLSCAASGGTISNYGMGWLRQGPGKEREFVGSINWNGATTHYADSVKGRFIISRDNAKNTVYLQMNSLKPEDTGVYYCVAQFSVQPTLRTYDYGGQGTQVTVSE
In the case of B2, the binding result (in the assay with Human serum albumin [2]; in assay [3]; with mouse albumin [4]) was “binds” in each case.

B3: Nb126 (VHH)
VHH: QVQLVESGGGLVQAGGSLRLSCAASGLTFSNYVMGWFRQAPGKEREFVAYIHWSGGRILYADSVKGRFTISRDNTKNTMYLQMNSLKPDDTAVYYCTADQYATTVLRAAGEYWGQGTQVTVSE
For B3, the Kd in the assay with Human serum albumin [1] is 0.251 nM.

B4: Nb77 (VHH)
VHH: QVQLVESGGGLVQAGGSLRLSCTASGRTYEPLVMGWFRQAPGKEREFVATITPSGGSLSYADSVKGRFTVSRDNAKKTVYLQMNRLQPEDTAVYYCAAAPGVGNYRYTRQYDYWGQGTQVTVSE
For B4, the binding result with mouse albumin [5] was “binds”.

B5: Nb80 (VHH)
VHH: EVQLVESGGGLVQAGGSLRLSCTASGRTFTPYTMGWFRQAPGKEREFVASILWSGNNRDYADSVKGRFAISRDNAKNTAYLQMTSLKPEDTAVYYCAAGDGLGFYRSVNQYDYWGQGTQVTVS
As for B5, in the assay with Human serum albumin [1], binding was characterised by a dissociation constant (Kd) of 0.166 nM. For the same molecule, in the assay with mouse albumin [5], the binding result is “binds”.

A word on the Kd: it is the concentration at which binding is half-saturated.

Source of the values: publication doi:10.1101/2020.08.19.257725 (bioRxiv, 2020).
